Here are results for six molecules from PMC4956616.

Changes are numbered by the printed parent chain. Numbers in names are those of the source.

For experiment [1], the target named is NT-495-labeled Arl1^GTP, P40616. Nature of the experiment: fluorescence anisotropy. The note with it: chain shown with the change;; parent: 26 ± 5. For orientation: Fluorescence polarisation rises when a labelled molecule tumbles more slowly, as on binding a larger partner.
In experiment [2] the target is NT-495-labeled Arl1^GTP (human) (UniProt P40616). Nature of the experiment: fluorescence polarisation; fluorescence anisotropy, NT-495-labeled Arl1 titrated with DCB variants, 20°C, 50 mM Tris-HCl pH 8.0, 110 mM KCl, 1 mM DTT, 5 mM MgCl2, 0.001% Triton X-100, 0.1% Tween-20, 5 μM GTP; single-site (1:1) model.

NT-495-labeled Arl1^GTP, P40616, sequence (P40616 15-181 Q71L): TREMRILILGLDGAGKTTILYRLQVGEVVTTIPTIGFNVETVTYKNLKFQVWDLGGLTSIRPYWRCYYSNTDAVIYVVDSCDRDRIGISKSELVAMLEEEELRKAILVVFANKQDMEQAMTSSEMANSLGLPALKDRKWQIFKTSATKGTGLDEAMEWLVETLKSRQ

B1: His6-DCB^BIG1 (human BIG1 residues 1–228), Q9Y6D6 L156D (protein)
chain: MYEGKKTKNMFLTRALEKILADKEVKKAHHSQLRKACEVALEEIKAETEKQSPPHGEAKAGSSTLPPVKSKTNFIEADKYFLPFELACQSKCPRIVSTSLDCLQKLIAYGHLTGNAPDSTTPGKKLIDRIIETICGCFQGPQTDEGVQLQIIKALDTAVTSQHIEIHEGTVLQAVRTCYNIYLASKNLINQTTAKATLTQMLNVIFARMENQALQEAKQMEKERHRQH
Broadly, the Kd is the concentration at which binding is half-saturated. In the case of B1, the Kd in experiment [1] was determined as 86 µM.

B2: His6-DCB^BIG1 Lys105Asp (domain or fragment)
chain: B1 chain with K105D, D156L
The molecule B2 displayed a fold increase of Kd against wild type in experiment [2] greater than 5 fold.

B3: His6-DCB^BIG1 (human BIG1 residues 1–228), Q9Y6D6 Q200E (protein)
chain: B1 chain with D156L, Q200E
With B3, the Kd in experiment [1] worked out at 140 µM.

B4: His6-DCB^BIG1 (human BIG1 residues 1–228), Q9Y6D6 K105D (protein)
chain: B1 chain with K105D, D156L
Take B4: in experiment [1], the Kd was determined as 110 µM.

B5: His6-DCB^BIG1 (human BIG1 residues 1–228) (domain or fragment)
chain: B1 chain with D156L
In experiment [2], B5 came in with a Kd of 26 µM.

B6: His6-DCB^BIG1 Gln200Glu (domain or fragment)
chain: B1 chain with D156L, Q200E
The molecule B6 returned a fold increase of Kd against wild type in experiment [2] greater than 5 fold.
